Experiment: yeast display, Sf9 membrane polyspecificity reagent, FACS + sequencing; frameworks hold sequencing errors
In short: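 Using colony PCR, genes from sorted yeast display clones were amplified, then sequenced on MiSeq at 2 × 250 and filtered by CDR length. The clones had been stained with 10% biotinylated, detergent-solubilized Sf9 membrane reagent for 1 hour at 4 °C and sorted by FACS into low and high (top ~1%) gates on anti-HA and streptavidin fluorescence. Polyreactivity labels come from the gate of origin.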

Row | Sequence | polyreactivity (PSR sort gate)
1 | QVQLVESGGGLVQAGGSLRLSSAASGSIFGRYVMGWYRQAPGKERELVATISSGGSTYYADSVKGRFTISRDNAKNTVYLQMNSLKPEVTAVYYCNADYGYEYDYWGQGTQVTVSS | low polyreactivity
2 | QVQLVESGGGLVQAGGSLRLSSAASGSIFLLYAKGWDRQAPGKERELVAAISRSGDSTHYADSVKGRFTISRDNAKNTVYLQMNSLQPEDTAVYYCAADGYDPYGGLYAYWGHGTQVTVSS | low polyreactivity
3 | QVQLVESGGGLVQAGGSLRLSSAASGSIFPLYAMGWYRQAPGKERELVATINRRTGSTYADSVKGRFTISRDNAKNTVYLQMKSLKPEYTAVYYCNAADNYVLFYKTRIYNYWGQGTQVTVSS | high polyreactivity
4 | QVQLVESGGGLVQAGGSLRLSSAASGSIFPRYVMGCYRQAPGKERELVPAISRGGSTNYADSVKGRFTISRDNAKNTVYLQMNSLKPEDTAVYYCDAVLYTRYNYWGQGTQVTVSS | high polyreactivity
5 | QVQLVESGGGLVQAGGSLRLSSAASGSIFSAYAMGWYRQAPGKERELVATISRSGASTYYADSVKGRFTISRDNAKNTVYLQMNSLKPEDTAVYYCAARYYSPAYRLGGVDYWGQGTQVTVSS | high polyreactivity
6 | QVQLVESGGGLVQAGGSLRLSSAASGSIFWPNTMGWYRPAPGKERELVAGISFGGGSTYYADSVKGRFTISRDNAKNTVYLQMNRLKPEDTAVYYCNGDDPGYAGPWYWFKYDYWGQGTQVTVSS | low polyreactivity
7 | QVQLVESGGGLVQAGGSLRLSSAASGSIFYNNAMGWYRQAPGKERELVAAISGSGDSTYYADSVKGRFTISRDNAKNTVYLQMNSLIPDDTAVYYCNATPYVLWWSDMDYWGQGTQVTVSS | high polyreactivity
8 | QVQLVESGGGLVQAGGSLRLSSAASGSILGDYGMGWYRQAPGKERELVAAITWNGDSTYYADSVKGRFTISRDNAKNTVYLQMNSLKPEDTAVYYCAADLQDYKYYPWYGYWGQGTQVTVSS | low polyreactivity
9 | QVQLVESGGGLVQAGGSLRLSSAASGSISADYVMGWYRQAPGKERELVAAISVSAGTTYYADSVKGRFTISRDNAKNTVYLQMNSLKPEDTAVYYCAATDSYYWLYYYGYSPGNDYWGQGTQVTVSS | low polyreactivity
10 | QVQLVESGGGLVQAGGSLRLSSAASGSPFIYYVMGWYRQAPGKERELVAAITRSGSTNYADSVKGRFTISRDNAKNTVYLQMNSLKPEDTAVYYCAAERALSRYGYWGHGTQVTVSS | low polyreactivity
11 | QVQLVESGGGLVQAGGSLRLSSAASGSTFAFYDMGWYRQAPGKERELVAGISSSGSTYYADSVKGRFTISRDNAKNTVYLQMNSLKPEDTAVYYCAAVLSVRVYGYDYWGQGTQVTVSS | low polyreactivity
12 | QVQLVESGGGLVQAGGSLRLSSAASGSTFDSNAMGWYRQAPGKERELVAAIDYSSDSTYYADSVKGRFTISRDNAKNTVYLQMNSLKPEDTAVYYCAAVAYIFCARYGYNYWGQGTQVTVSS | low polyreactivity
13 | QVQLVESGGGLVQAGGSLRLSSAASGSTFGSYTMGWYRQAPGKERELVAAINWSGGNTYYADSVKGRFTISRDNAKNTVYLQMNSLKPEDPAVYYCAAAFYIYGVEGDYWGQGTQVTVSS | low polyreactivity
14 | QVQLVESGGGLVQAGGSLRLSSAASGSTFISYAMGRYSQAPGQDRELVAAISSGGGRTSYADSVKGRLTISRDHAKNTVYLQMNSLKPEDTAVYYCNKTPHFPRPGFNYWGQGTHVTVSS | low polyreactivity
15 | QVQLVESGGGLVQAGGSLRLSSAASGSTFTAYAMGWYRQAPGTERELVAAISRSRGRTYYADSVKGRFTISRDNAKYTVYLEMISLKPEDTAVLYCNARGGSDGDYWGQGTQVTVSS | high polyreactivity
16 | QVQLVESGGGLVQAGGSLRLSSAASGSTFVYNYMGWYRQAPGKERELVAAIDSGGSTYYADSVKGRFTISRDNAKNTVYLQMNSLKPEDTAVYYCAASSDSYFGYHYYYWGQGTQVTVSS | low polyreactivity
17 | QVQLVESGGGLVQAGGSLRLSSAASGSTFYKYAMGWNRQTPGKERELVAPITGNSGSTYYADSVKGRFTISRDNAKNTVYLQMNSLKPEDTAVYYCAAARPRVWAFNYWGQGTQVTVSS | low polyreactivity
18 | QVQLVESGGGLVQAGGSLRLSSAASGSTFYYNTMGWSRQAPGKERELVAAISSSGGTTYYADSVKGRFTISRDNAKNTVYLQMNSLKPEDTAVYYCNVATIWYSYARGYGYWGQGTQVTVSS | high polyreactivity
19 | QVQLVESGGGLVQAGGSLRLSSAASGSTIGYYAMRWYRQAPGKERELVAAISWSGGSTYYADSVKGRFTISRDNAKNTVYLQMNSLKPEDTAVYYCAADTYPDYYLVEYYYWGQGTQVTVSS | low polyreactivity
20 | QVQLVESGGGLVQAGGSLRLSSAASGSTLRRYAMGWYRQAPGKERELVAAISGSGDSTYYADSVKGRFTISRDNAKNTVYLQMNSLKPEDTAVYYCNAVYAFNGYDYWGQGTQVTVSS | low polyreactivity
21 | QVQLVESGGGLVQAGGSLRLSSAASGSTSYYYVMGWYRQAPGKERELVAAISNGDTTNYADSVKGRITITRDNEKNTVYLQMNSLKPEVTAVDYCAAVYYRSFHDYGYWGQGTQVTVSS | low polyreactivity
22 | QVQLVESGGGLVQAGGSLRLSSAASGTIFRSYSMGWSRQAPGKERELVASITWRGGRTYYADSVKGRFTISRDNAKNTVYLQMNSLKPEDTAVDFCAVLWTPAGGYYFRYDYWGQGTQVTVSS | low polyreactivity

Row | Sequence | polyreactivity (PSR sort gate)
23 | QVQLVESGGGLVQAGGSLRLSSAASGYIFDWNAMGWYRQAPGKERELVAAISSGGRTNYADSVKGRFTISRDNAKNTVYLQMNSLKPEDTAVYYCAAVYTDPYVEYDYWGQGTQVTVSS | low polyreactivity
24 | QVQLVESGGGLVQAGGSLRLSSAAYGRTFRPYAMGWYRQAPGKERELVAAIDSSGTSTYYADSVKGRFTISLDNAKNTVYLQMNSLKPEDTAVYYCAAGSDPTGRRYDYWGQGTQVTVSS | low polyreactivity
25 | QVQLVESGGGLVQAGGSLRLSSAGSGSPFRSNAMGWYRQAPGKERELVAAISQRGGSTYYADSVKGRFTISRDNAKNPVYLQMNSLKAVDTAVYYCAKVSKRVGFPTAMNYWGQGTQVTVSS | high polyreactivity
26 | QVQLVESGGGLVQAGGSLRLSSASSGFIFRGNAMVWSRQAPGKERELVAAISWSGGNTYYADSVKGRFTISRDYAKNTVYLQMNSMIPEDTAVYYCNGVKAYYRWFLPRYQYNFWGQGTQVTVSS | high polyreactivity
27 | QVQLVESGGGLVQAGGSLRLSSASSGFTFTFYAMGWYRQEPGKERELVAAISKGGGSTSYADSVKGRFTISRDNAKNTVYLQMNCLKPEETAVYYCAARYYYSRSRLYYYWGQGTQVTVSS | high polyreactivity
28 | QVQLVESGGGLVQAGGSLRLSSASSGSIFESNALGWYRQAPGKEREFVAAIDQNDGSTNYADSVKGRFTISRDNAKNTVYLQMYSLNPEDTAVYYCAASPGTASYDYWGQGTQVTVSS | low polyreactivity
29 | QVQLVESGGGLVQAGGSLRLSSDASGRIFRYYSMGWYRQAPGKERELVAAITRGGYTNYADSVKGRFTISRDNAKITVYFQMNSLKQEDTAVYYCATRQSWYPRWMDYWGQGTQVTVSS | high polyreactivity
30 | QVQLVESGGGLVQAGGSLRLSSPASGSTYVVYAMGWYRPAPGKERELVADITRSGGSTYYADSVKGRFTISRDNAKNTVYLQMNSLKPEDSAVYYCAAVRRNGPYKYYYWGQGTQVTVSS | high polyreactivity
31 | QVQLVESGGGLVQAGGSLRLSSSASGGTFWDYAMGCYRQAPGKERELVAAINWSGDSTYADSVKGRFTISRDNAKNTCYLQMTSLKPEDTAVYYCNADVWYYRMDYWGQGTQVTVSS | low polyreactivity
32 | QVQLVESGGGLVQAGGSLRLSWAAAGFIFYYNAMGRYRQAPGKERELVAAIDESGGSTYYADSVKGRFTISRDNATNTVYLQLNSLKPEDSAVYYCDTDDTWSISYGWYWFTYEYWGQGTQVTVSS | low polyreactivity
33 | QVQLVESGGGLVQAGGSLRLSWAASGFTFYRYAMGWYRQAPGKERELVAAITRSGSRTYYADSVKGRFTISRDNAKNTVYVQMNSLKPEDTAVYYCNTDGGDHPTARYGYWGQGTQVTVSS | high polyreactivity
34 | QVQLVESGGGLVQAGGSLRLSWAASGIILQEYTMGWYRPAHWKERELVAAISVRGGSTYYADSVKGRFTISRDHAKNTVYLQMNSLKPEDTAVYYCAAAYYRRPPGFNYWGQGTEVTVSS | high polyreactivity
35 | QVQLVESGGGLVQAGGSLRLSWAASGRTIVYYAMGWYSQAPGKEREFVAAISRSGGRTSYADSVKGRFTISRDNAKNTVYLHMNILKPDDTAVYYCAAEKRTQPTSREYYWGKGTQVTVSS | high polyreactivity
36 | QVQLVESGGGLVQAGGSLRLSWAASGSIFFLYAMGWYRQAPAKERELVAAITSIGGSTYADSVKGRFTISRDNAKNTVYLQMNSLKPEDTAVYYCNTDEYPLTVQVQYYYWGQGTEVTVSS | low polyreactivity
37 | QVQLVESGGGLVQAGGSLRLSWAASGSIFGWYGMGWYSPAPGKERELVAAITRGGSTYYADSVKGRFTISRDNAKNTVYLQMNSLKPEDTAGYYCAKRSGQQYGGYGYWGQGTQVTVSS | low polyreactivity
38 | QVQLVESGGGLVQAGGSLRLSWAASGSNFDAYAMGWYRPAPGKERELVAAINARGGSTYYADSVKGRFTISRDNAKNTVYLQMNSLKPEETAVYDCNRLSRVRRYIYDYWGQGTQVTVSS | high polyreactivity
39 | QVQLVESGGGLVQAGGSLRLSWAAYGRIFLTNAMGWYRQAPGKERELVAAITSGGSTYYADSVKGRFTISRDNAKNTVYLQMNSLKPEDTAVYYCKADTDRYWPYEYDYWGQGTQVTVSS | low polyreactivity
40 | QVQLVESGGGLVQAGGSLRLSWAAYGRTILWYTMGWYRQAPGKERDLVADISSSGGTTFYADSVKGRFTISRDNAKNTVYLQMNSLKAVDNAVYYCKRNARKLRTVHSSVVGLDYWGQGTQVTVSS | low polyreactivity
41 | QVQLVESGGGLVQAGGSLRLTCAASALTFVWYAMGWYRQATGKERELVAAIRGGGSTYYADSVKGRFTISRDNAKNTVYLQMNRLIPEDTAVYYCAAQRSPYYTFYYWGQGTQVTVSS | high polyreactivity
42 | QVQLVESGGGLVQAGGSLRLTCAASARTFFGYAMGWYRQAHGKARELVARIRWSTTYYADSVKGRFTISRDNAKNTVYLQMNSLKPEDTAVYYCNAVYYYVGYRYDYWGQGTQVTVSS | high polyreactivity
43 | QVQLVESGGGLVQAGGSLRLTCAASGFIFAHYAMGWYRQAPGKERELVAAISSRGGSTYYADSVKGRFTISRDNAKNTVYLQMNSLKPEDTAVYYCAKARHRPARGYEYWGQGTQVTVSS | high polyreactivity

From the nanobody polyreactivity screen of Harvey et al. (2022)
